The values that follow come from publication PMC6453779, “The Different Effects of Substrates and Nucleotides on the Complex Formation of ABC Transporters” (Structure(London, England:1993), 2019).

One assay concerns the target T1, BtuCD-F (Escherichia coli, UniProt P06611).
T1 construct: gene btuD; BtuC2D2-F complex; BtuCD from pET19b-BtuCD in E. coli BL21(DE3), LDAO purified, MS in C8E4; BtuF residues 23-266; theoretical mass 158,253 Da; with Vitamin B12 import system permease protein BtuC
T1 sequence (P06611 1-249): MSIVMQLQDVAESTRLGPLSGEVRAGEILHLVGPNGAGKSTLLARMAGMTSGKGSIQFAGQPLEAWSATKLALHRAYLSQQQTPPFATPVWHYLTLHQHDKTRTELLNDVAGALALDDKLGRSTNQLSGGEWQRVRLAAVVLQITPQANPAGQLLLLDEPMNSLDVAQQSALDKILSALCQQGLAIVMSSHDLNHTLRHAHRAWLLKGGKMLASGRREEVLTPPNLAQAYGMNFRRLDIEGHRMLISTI
T1 sequence (P06609 1-326 partner): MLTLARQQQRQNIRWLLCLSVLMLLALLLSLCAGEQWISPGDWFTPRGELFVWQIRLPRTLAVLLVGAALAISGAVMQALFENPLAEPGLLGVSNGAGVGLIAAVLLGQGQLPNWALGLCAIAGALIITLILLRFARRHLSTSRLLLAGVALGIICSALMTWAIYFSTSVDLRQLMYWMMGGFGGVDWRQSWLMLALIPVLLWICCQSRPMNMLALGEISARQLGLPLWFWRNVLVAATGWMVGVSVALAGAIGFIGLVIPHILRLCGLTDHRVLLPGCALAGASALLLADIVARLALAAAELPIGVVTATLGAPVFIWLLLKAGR
T1 sequence (P37028 23-266 partner): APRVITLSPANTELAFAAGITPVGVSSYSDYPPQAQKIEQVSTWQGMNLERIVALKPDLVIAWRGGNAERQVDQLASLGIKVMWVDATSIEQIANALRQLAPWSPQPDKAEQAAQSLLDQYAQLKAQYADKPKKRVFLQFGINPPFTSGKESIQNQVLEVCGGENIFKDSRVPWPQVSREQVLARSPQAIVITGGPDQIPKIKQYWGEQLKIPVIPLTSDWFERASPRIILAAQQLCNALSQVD
In words: native mass spectrometry. Conditions: then BtuF, C8E4. The assay is classed as binding.

Another assay deals with T2, BtuCD (Escherichia coli, UniProt P06611).
T2 construct: gene btuD; BtuC2D2 tetramer without BtuF; pET19b-BtuCD in E. coli BL21(DE3), LDAO purified, MS in C8E4; theoretical mass 128,839 Da; with Vitamin B12 import system permease protein BtuC
T2 sequence (P06611 1-249): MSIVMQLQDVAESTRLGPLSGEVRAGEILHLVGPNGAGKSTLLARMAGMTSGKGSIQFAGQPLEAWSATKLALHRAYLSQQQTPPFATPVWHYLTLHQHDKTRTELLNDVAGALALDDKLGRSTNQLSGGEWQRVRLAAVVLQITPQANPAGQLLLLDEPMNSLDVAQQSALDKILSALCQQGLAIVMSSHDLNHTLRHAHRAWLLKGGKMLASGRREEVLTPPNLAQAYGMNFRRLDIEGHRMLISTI
T2 sequence (P06609 1-326 partner): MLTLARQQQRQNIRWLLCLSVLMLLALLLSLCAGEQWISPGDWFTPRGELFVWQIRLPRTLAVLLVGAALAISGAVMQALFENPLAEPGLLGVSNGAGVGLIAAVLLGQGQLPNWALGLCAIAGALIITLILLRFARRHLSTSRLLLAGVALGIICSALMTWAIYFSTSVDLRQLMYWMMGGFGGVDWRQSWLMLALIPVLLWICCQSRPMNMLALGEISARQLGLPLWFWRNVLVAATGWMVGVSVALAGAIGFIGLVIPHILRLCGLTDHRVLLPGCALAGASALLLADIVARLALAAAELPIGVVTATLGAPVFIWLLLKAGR
In words: native mass spectrometry. Format: binding. Conditions: free BtuCD population beside BtuCD-F, C8E4.

The target in assay [1] is T3, ModBC-A⋅MoO4^2− (nucleotide row) (Archaeoglobus fulgidus, UniProt O30144).
T3 construct: gene wtpC; nucleotide site on the NBDs (ModC); with Molybdate/tungstate transport system permease protein WtpB
In words: native mass spectrometry. The assay is classed as binding. Conditions: 10 uM ATP and MgCl2 added to ModBC, ModA preloaded with molybdate; one and two ADP bound; C8E4.

Assay [2] deals with T4, ModB, transmembrane subunit of ModBC of Archaeoglobus fulgidus (A. fulgidus, UniProt O30143 1-261).
T4 construct: ModB, transmembrane subunit of the molybdate importer ModBC, A. fulgidus; construct pET19b-ModBC; source: E. coli BL21(DE3), co-purified as ModBC from membranes (DDM and C12E8, HisTrap, SEC)
T4 sequence: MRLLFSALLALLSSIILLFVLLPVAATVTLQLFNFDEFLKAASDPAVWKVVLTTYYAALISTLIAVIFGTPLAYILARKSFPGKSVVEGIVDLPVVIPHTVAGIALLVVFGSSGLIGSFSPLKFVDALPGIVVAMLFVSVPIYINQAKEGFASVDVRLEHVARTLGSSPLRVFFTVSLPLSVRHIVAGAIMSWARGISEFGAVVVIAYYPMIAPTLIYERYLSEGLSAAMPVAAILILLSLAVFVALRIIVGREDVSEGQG
In words: native MS; co-expressed and co-purified transporter alone, buffer exchanged into 200 mM ammonium acetate with 0.5% C8E4. The conditions noted are these: both partners purified.

Assay [3] has as its target T5, vitamin B12 transporter BtuCD (BtuC2D2) of Escherichia coli (E. coli, UniProt P06609 1-326; P06611 1-249).
T5 construct: BtuC, transmembrane subunit of the vitamin B12 importer BtuCD, E. coli; construct pET19b-BtuCD, gift from Kaspar Locher; Purified on a HisTrap column from pET19b-BtuCD; also called tetrameric transporter; source: E. coli BL21(DE3), purified from membranes (LDAO, HisTrap, Superdex 200 SEC); copies: 2 + 2
T5 sequence 1: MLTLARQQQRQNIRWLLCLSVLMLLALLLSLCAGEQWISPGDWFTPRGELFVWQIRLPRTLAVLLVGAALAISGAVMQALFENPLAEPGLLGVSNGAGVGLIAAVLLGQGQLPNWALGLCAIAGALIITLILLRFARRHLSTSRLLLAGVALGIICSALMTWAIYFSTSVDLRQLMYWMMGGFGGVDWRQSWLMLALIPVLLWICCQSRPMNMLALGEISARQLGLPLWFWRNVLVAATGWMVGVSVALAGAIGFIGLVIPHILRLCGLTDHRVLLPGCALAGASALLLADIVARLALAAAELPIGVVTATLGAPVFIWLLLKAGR
T5 sequence 2: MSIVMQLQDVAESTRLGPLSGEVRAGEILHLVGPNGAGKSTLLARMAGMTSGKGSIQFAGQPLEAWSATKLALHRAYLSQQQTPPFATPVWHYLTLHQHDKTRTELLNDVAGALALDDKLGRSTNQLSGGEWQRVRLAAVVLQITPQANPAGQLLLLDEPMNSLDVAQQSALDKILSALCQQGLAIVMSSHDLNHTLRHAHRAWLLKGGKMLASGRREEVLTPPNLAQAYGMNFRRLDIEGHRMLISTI
In words: native MS; BtuF and BtuCD incubated in a 1:2 molar ratio (BtuF:BtuCD) in 200 mM ammonium acetate with 0.5% C8E4; without ligand, or with 2 mM vitamin B12, dicyanocobinamide or vitamin B9 added to BtuF before buffer exchange, or 5 mM ATP/MgCl2 or 5 mM AMP-PNP added to BtuCD before buffer exchange, or vitamin B12 and ATP together. The conditions noted are these: both partners purified.

For assay [4], the target named is T6, BtuC, transmembrane subunit of BtuCD of Escherichia coli (E. coli, UniProt P06609 1-326).
T6 construct: BtuC, transmembrane subunit of the vitamin B12 importer BtuCD, E. coli; construct pET19b-BtuCD; source: E. coli BL21(DE3), co-purified as BtuCD from membranes (LDAO, HisTrap, SEC)
T6 sequence: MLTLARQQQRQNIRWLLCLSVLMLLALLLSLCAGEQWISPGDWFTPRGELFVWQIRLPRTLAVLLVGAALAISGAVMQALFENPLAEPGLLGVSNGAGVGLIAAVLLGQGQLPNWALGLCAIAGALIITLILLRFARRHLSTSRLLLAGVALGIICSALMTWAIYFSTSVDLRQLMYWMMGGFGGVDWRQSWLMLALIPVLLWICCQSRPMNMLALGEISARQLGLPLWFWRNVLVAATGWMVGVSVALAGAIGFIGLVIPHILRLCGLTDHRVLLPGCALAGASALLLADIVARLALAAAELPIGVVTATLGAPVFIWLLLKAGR
In words: native MS; co-expressed and co-purified transporter alone, buffer exchanged into 200 mM ammonium acetate with 0.5% C8E4. Conditions: both partners purified.

T3 sequence (O30142 32-342 partner, one chain of several): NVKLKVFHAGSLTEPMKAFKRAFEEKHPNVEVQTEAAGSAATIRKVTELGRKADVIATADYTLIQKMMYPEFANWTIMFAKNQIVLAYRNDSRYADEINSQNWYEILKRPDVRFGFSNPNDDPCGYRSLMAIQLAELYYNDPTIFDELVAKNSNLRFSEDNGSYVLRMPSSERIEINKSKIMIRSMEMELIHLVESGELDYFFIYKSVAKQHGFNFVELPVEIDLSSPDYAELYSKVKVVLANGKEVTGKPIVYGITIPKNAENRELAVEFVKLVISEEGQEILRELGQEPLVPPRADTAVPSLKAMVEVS

`Nc1ncnc2c1ncn2[C@@H]1O[C@H](COP(=O)(O)OP(=O)(O)NP(=O)(O)O)[C@@H](O)[C@H]1O` [AMP-PNP, Adenosine 5’-(β,γ-imido)triphosphate]: the “observed mass of complex” value on BtuCD-F (5 mM AMP-PNP added to BtuCD before buffer exchange, two bound) was “apo-BtuCD-F as well as a population assigned to BtuCD-F⋅2AMP-PNP”. For the same molecule, the “bound species by mass” value at BtuCD (5 mM AMP-PNP added before buffer exchange) is given as “BtuCD was bound to the two different nucleotides in a similar fashion”.
Regarding `Nc1ncnc2c1ncn2[C@@H]1O[C@H](COP(=O)(O)OP(=O)(O)O)[C@@H](O)[C@H]1O` [ADP], the “observed mass of complex” value in assay [1] was “an apo form and the species bound to one and two ADP molecules”; on BtuCD-F (5 mM ATP and 5 mM MgCl2 added to BtuCD before buffer exchange, one and two ADP bound) it was “two nucleotide-bound states with one and two ADP molecules bound”. Moreover, the “bound species by mass” value at BtuCD (5 mM ATP and 5 mM MgCl2 added before buffer exchange) is “The presence of ADP-bound species of both BtuCD-F and BtuCD are observed”.

B1: ModC, nucleotide binding subunit of ModBC of Archaeoglobus fulgidus (natural protein, A. fulgidus)
chain: MFLKVRAEKRLGNFRLNVDFEMGRDYCVLLGPTGAGKSVFLELIAGIVKPDRGEVRLNGADITPLPPERRGIGFVPQDYALFPHLSVYRNIAYGLRNVERVERDRRVREMAEKLGIAHLLDRKPARLSGGERQRVALARALVIQPRLLLLDEPLSAVDLKTKGVLMEELRFVQREFDVPILHVTHDLIEAAMLADEVAVMLNGRIVEKGKLKELFSAKNGEVAEFLSARNLLLKVSKILD
notes: construct pET19b-ModBC; source: E. coli BL21(DE3), co-purified as ModBC from membranes (DDM and C12E8, HisTrap, SEC)
Take B1: the binding result in assay [2] is listed as “binds”.

B2: periplasmic vitamin B12 substrate-binding protein BtuF of Escherichia coli (aa 23-266) (natural protein, E. coli, UniProt P37028 23-266, looked up)
chain: APRVITLSPANTELAFAAGITPVGVSSYSDYPPQAQKIEQVSTWQGMNLERIVALKPDLVIAWRGGNAERQVDQLASLGIKVMWVDATSIEQIANALRQLAPWSPQPDKAEQAAQSLLDQYAQLKAQYADKPKKRVFLQFGINPPFTSGKESIQNQVLEVCGGENIFKDSRVPWPQVSREQVLARSPQAIVITGGPDQIPKIKQYWGEQLKIPVIPLTSDWFERASPRIILAAQQLCNALSQVD
notes: also called SBP; source: E. coli BL21(DE3), purified (HisTrap, SEC; same protocol as ModA, final buffer with 10 mM DTT)
Turning to B2, in assay [3], the “uncomplexed BtuCD relative to BtuCD-F (100%), with dicyanocobinamide” value worked out at 44%; the “uncomplexed BtuCD relative to BtuCD-F (100%), with vitamin B9” value stood at 15%; the “uncomplexed BtuCD relative to BtuCD-F (100%), with vitamin B12” value came to 45%; the “uncomplexed BtuCD relative to BtuCD-F, no substrate” value is 10%. Besides, in assay [3], the “uncomplexed BtuCD relative to BtuCD-F, with AMP-PNP” value was found to be 43% and the “uncomplexed BtuCD relative to BtuCD-F, with ATP” value was 40%.

B3: BtuD, nucleotide binding subunit of BtuCD of Escherichia coli (natural protein, E. coli)
chain: MSIVMQLQDVAESTRLGPLSGEVRAGEILHLVGPNGAGKSTLLARMAGMTSGKGSIQFAGQPLEAWSATKLALHRAYLSQQQTPPFATPVWHYLTLHQHDKTRTELLNDVAGALALDDKLGRSTNQLSGGEWQRVRLAAVVLQITPQANPAGQLLLLDEPMNSLDVAQQSALDKILSALCQQGLAIVMSSHDLNHTLRHAHRAWLLKGGKMLASGRREEVLTPPNLAQAYGMNFRRLDIEGHRMLISTI
notes: construct pET19b-BtuCD; source: E. coli BL21(DE3), co-purified as BtuCD from membranes (LDAO, HisTrap, SEC)
Turning to B3, the binding result in assay [4] is on record as “binds”.
